{"source": "paper PMC4896396", "about": "(Journal of the American Chemical Society, 2016)", "target": "the molecule itself", "experiment": "SEC-SAXS", "data": [{"protein": "full-length rat phenylalanine hydroxylase (wt-PheH) (enzyme, UniProt P04176 1-453, looked up) MAAVVLENGVLSRKLSDFGQETSYIEDNSNQNGAISLIFSLKEEVGALAKVLRLFEENDINLTHIESRPSRLNKDEYEFFTYLDKRTKPVLGSIIKSLRNDIGATVHELSRDKEKNTVPWFPRTIQELDRFANQILSYGAELDADHPGFKDPVYRARRKQFADIAYNYRHGQPIPRVEYTEEEKQTWGTVFRTLKALYKTHACYEHNHIFPLLEKYCGFREDNIPQLEDVSQFLQTCTGFRLRPVAGLLSSRDFLGGLAFRVFHCTQYIRHGSKPMYTPEPDICHELLGHVPLFSDRSFAQFSQEIGLASLGAPDEYIEKLATIYWFTVEFGLCKEGDSIKAYGAGLLSSFGELQYCLSDKPKLLPLELEKTACQEYSVTEFQPLYYVAESFSDAKEKVRTFAATIPRPFSVRYDPYTQRVEVLDNTQQLKILADSINSEVGILCNALQKIKS", "values": [{"measurement": "stoichiometry N", "value": 4}]}]}
